Measured values from publication PMC10821904 (2024).

How the values were obtained:
[1] = molecular target: Full-length LayV-G (Langya henipavirus attachment glycoprotein G) (Langya henipavirus (LayV)); experiment: cryo-EM structure
[2] = molecular target: LayV-G extracellular domain (Langya henipavirus attachment glycoprotein G, residues 63-624) (Langya henipavirus (LayV)); experiment: SEC + other: non-reducing and reducing SDS-PAGE
[3] = molecular target: T1, human ephrinB3 extracellular domain (amino acids 1-224) (human, UniProt Q15768 28-224); experiment: BLI
T1 chain: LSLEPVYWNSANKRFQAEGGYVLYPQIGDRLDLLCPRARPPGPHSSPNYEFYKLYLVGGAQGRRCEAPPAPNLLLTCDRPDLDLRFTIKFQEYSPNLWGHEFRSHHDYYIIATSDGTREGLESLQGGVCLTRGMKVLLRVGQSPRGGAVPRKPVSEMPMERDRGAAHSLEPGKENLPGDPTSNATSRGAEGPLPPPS

[4] = molecular target: T2, human ephrinB2 extracellular domain (amino acids 1-227) (human, UniProt P52799 28-227); experiment: BLI
T2 chain: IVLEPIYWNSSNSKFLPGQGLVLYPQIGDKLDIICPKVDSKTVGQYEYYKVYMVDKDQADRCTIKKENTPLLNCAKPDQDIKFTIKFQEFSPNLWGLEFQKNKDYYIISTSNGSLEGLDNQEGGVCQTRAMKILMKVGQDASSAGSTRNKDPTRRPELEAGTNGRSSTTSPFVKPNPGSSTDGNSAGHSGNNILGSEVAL

## Full-length LayV-G (Langya henipavirus attachment glycoprotein G) (natural protein)
[1]
  stoichiometry N: 4

## LayV-G extracellular domain (Langya henipavirus attachment glycoprotein G, residues 63-624) (domain or fragment)
[2]
  stoichiometry N: 4

B1: NiV-G ectodomain (Nipah virus attachment glycoprotein G) (domain or fragment)
chain: QNYTRSTDNQAVIKDALQGIQQQIKGLADKIGTEIGPKVSLIDTSSTITIPANIGLLGSKISQSTASINENVNEKCKFTLPPLKIHECNISCPNPLPFREYRPQTEGVSNLVGLPNNICLQKTSNQILKPKLISYTLPVVGQSGTCITDPLLAMDEGYFAYSHLERIGSCSRGVSKQRIIGVGEVLDRGDEVPSLFMTNVWTPPNPNTVYHCSAVYNNEFYYVLCAVSTVGDPILNSTYWSGSLMMTRLAVKPKSNGGGYNQHQLALRSIEKGRYDKVMPYGPSGIKQGDTLYFPAVGFLVRTEFKYNDSNCPITKCQYSKPENCRLSMGIRPNSHYILRSGLLKYNLSDGENPKVVFIEISDQRLSIGSPSKIYDSLGQPVFYQASFSWDTMIKFGDVLTVNPLVVNWRNNTVISRPGQSQCPRFNTCPEICWEGVYNDAFLIDRINWISAGVFLDSNQTAENPVFTVFKDNEILYRAQLASEDTNAQKTITNCFLLKNKIWCISLVEIYDTGDNVIRPKLFAVKIPEQCT
[3]
  Kd: 9.3 nM
[4]
  Kd: 0.19 nM
